From the supplement of paper PMC7877785
± gives the uncertainty stated by the source.

Test: self-splicing fitness, log relative to wild type (ln ratio); higher = more splicing; Tetrahymena group I intron in knt gene, E. coli kanamycin selection, DiMSum; sequences stand for … in CUCUCU…GGAGGGAAAAGUUAUCAGGCAUGCACCUGGUAGCUAGUCUUUAAACCAAUAGAUUGCAUCGGUUUAAAAGGCAAGACCGUCAAAUUGCGGGAAAGGGGUCAACAGCCGUUCAGUACCAAGUCUCAGGGGAAACUUUGAGAUGGCCUUGCAAAGGGUAUGGUAAUAAGCUGACGGACAUGGUCCUAACCACGCAGCCAAGUCCUAAGUCAACAGAUCUUCUGUUGAUAUGGAUGCAGUUCACAGACUAAAUGUCGGUCGGGGAAGAUGUAUUCUUCUCAUAAGAUAUAGUCGGACCUCUCCUUAAUGGGAGCUAGCGGAUGAAGUGAUGCAACACUGGAGCCGCUGGGAACUAAUUUGUAUGCGAAAGUAUAUUGAUUAGUUUUGGAGUACUCGUGGUCG
In short: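 Six replicate transformations of E. coli BL21(DE3) with a pET-22b(+) library were grown overnight at 37°C or 30°C. The library randomised all eight P1ex-region intron nucleotides, the intron lying in the knt kanamycin-resistance gene, and plates were LB agar with or without 25 μg/mL kanamycin plus 100 μg/mL carbenicillin, 50 μM IPTG and 0.2% rhamnose. Pooled colonies were amplicon-sequenced on an Illumina HiSeq 2500, and fitness is the DiMSum error-weighted combination of wild-type-normalised replicate fold changes, kanamycin versus none.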

Sequence | self-splicing fitness (ln) (30 °C) | self-splicing fitness (ln) (37 °C)
UUGGAGCAAUAUUACGGUGA | -1.27 ± 0.22 | -1.36 ± 0.14
UUGGAGCAAUAUUACGUCUA | -1.99 ± 0.34 | -2.49 ± 0.3
UUGGAGCAAUAUUACGUGUC | -3.26 ± 0.22 | -2.77 ± 0.38
UUGUAGCAAUAUUACGAAUA | -1.74 ± 0.15 | -1.64 ± 0.14
UUGUAGCAAUAUUACGAAUC | -3.06 ± 0.14 | -2.76 ± 0.24
UUGUAGCAAUAUUACGAGGU | -2.82 ± 0.2 | -2.61 ± 0.36
UUGUAGCAAUAUUACGAUUG | -2.16 ± 0.15 | -1.42 ± 0.2
UUGUAGCAAUAUUACGCAAA | -2.73 ± 0.35 | -1.05 ± 0.26
UUGUAGCAAUAUUACGGGCG | -1.05 ± 0.14 | 0.346 ± 0.2
UUGUAGCAAUAUUACGUAAU | -2.9 ± 0.22 | -2.37 ± 0.24
UUGUAGCAAUAUUACGUAUG | -1.99 ± 0.14 | -1.42 ± 0.16
UUGUAGCAAUAUUACGUCGU | -3.78 ± 0.26 | -2.44 ± 0.2
UUGUAGCAAUAUUACGUUAU | -2.7 ± 0.41 | -2.1 ± 0.25
UUGUAGCAAUAUUACGUUCA | -1.07 ± 0.11 | -0.717 ± 0.13
UUGUAGCAAUAUUACGUUGU | -3.77 ± 0.27 | -2.81 ± 0.24
UUGUAGCAAUAUUACGUUUG | -1.83 ± 0.15 | -1.87 ± 0.2
UUUAAGCAAUAUUACGAAAC | – | -1.01 ± 0.39
UUUAAGCAAUAUUACGAACA | -0.6 ± 0.17 | -0.353 ± 0.19
UUUAAGCAAUAUUACGAAUG | -1.54 ± 0.13 | -0.41 ± 0.15
UUUAAGCAAUAUUACGAAUU | -1.6 ± 0.17 | -1.58 ± 0.2
UUUAAGCAAUAUUACGACUC | -0.391 ± 0.24 | -0.881 ± 0.4
UUUAAGCAAUAUUACGAGUA | -1.72 ± 0.19 | -1.06 ± 0.19
UUUAAGCAAUAUUACGAUCG | -0.416 ± 0.12 | 0.237 ± 0.17
UUUAAGCAAUAUUACGCAUA | -3.17 ± 0.2 | -0.829 ± 0.14
UUUAAGCAAUAUUACGCGUA | -1.4 ± 0.14 | -0.828 ± 0.13

Sequence | self-splicing fitness (ln) (30 °C) | self-splicing fitness (ln) (37 °C)
UUUAAGCAAUAUUACGCUUG | -3.29 ± 0.23 | -1.4 ± 0.26
UUUAAGCAAUAUUACGGCGU | -1.29 ± 0.27 | -0.169 ± 0.34
UUUAAGCAAUAUUACGGGGC | -2.77 ± 0.3 | -3.55 ± 0.3
UUUAAGCAAUAUUACGGGUU | -2.83 ± 0.3 | -1.67 ± 0.22
UUUAAGCAAUAUUACGGUAC | -2.22 ± 0.28 | –
UUUAAGCAAUAUUACGGUAU | -3.05 ± 0.17 | -0.94 ± 0.17
UUUAAGCAAUAUUACGUAAG | -0.0425 ± 0.074 | 0.296 ± 0.094
UUUAAGCAAUAUUACGUACG | -0.346 ± 0.16 | 0.322 ± 0.17
UUUAAGCAAUAUUACGUAUC | – | -1.84 ± 0.33
UUUAAGCAAUAUUACGUCUG | -0.513 ± 0.1 | -0.114 ± 0.12
UUUAAGCAAUAUUACGUGGA | -1.99 ± 0.18 | -1.56 ± 0.2
UUUAAGCAAUAUUACGUUCG | -0.639 ± 0.093 | -0.169 ± 0.12
UUUCAGCAAUAUUACGACAU | -1.41 ± 0.015 | -0.565 ± 0.033
UUUCAGCAAUAUUACGACCG | 0.263 ± 0.18 | -0.377 ± 0.29
UUUCAGCAAUAUUACGAGGU | -3.53 ± 0.2 | -2.78 ± 0.24
UUUCAGCAAUAUUACGAUCG | -0.997 ± 0.099 | -0.152 ± 0.14
UUUCAGCAAUAUUACGAUUG | -0.724 ± 0.087 | -0.057 ± 0.11
UUUCAGCAAUAUUACGCACU | -0.429 ± 0.077 | -0.09 ± 0.092
UUUCAGCAAUAUUACGCGAU | -3.39 ± 0.15 | -2.47 ± 0.16
UUUCAGCAAUAUUACGCGCU | -3.54 ± 0.5 | –
UUUCAGCAAUAUUACGCGGC | -2.67 ± 0.25 | -1.74 ± 0.27
UUUCAGCAAUAUUACGCGGG | -2.27 ± 0.12 | -2.35 ± 0.15
UUUCAGCAAUAUUACGGAAG | -1.69 ± 0.12 | -0.536 ± 0.19
UUUCAGCAAUAUUACGGAUC | -1.14 ± 0.07 | -0.289 ± 0.089
UUUCAGCAAUAUUACGGGAG | -0.794 ± 0.07 | -0.0774 ± 0.1

Sequence | self-splicing fitness (ln) (30 °C) | self-splicing fitness (ln) (37 °C)
UUUCAGCAAUAUUACGGGGA | -2.43 ± 0.24 | -0.33 ± 0.16
UUUCAGCAAUAUUACGGGUC | -3.24 ± 0.26 | -2.14 ± 0.2
UUUCAGCAAUAUUACGGUAC | -1.9 ± 0.41 | -2.1 ± 0.26
UUUCAGCAAUAUUACGGUGA | -0.66 ± 0.056 | -0.395 ± 0.064
UUUCAGCAAUAUUACGUACG | -0.905 ± 0.12 | -0.18 ± 0.11
UUUCAGCAAUAUUACGUCUC | -3.39 ± 0.4 | -0.735 ± 0.17
UUUCAGCAAUAUUACGUGGC | -2.68 ± 0.15 | -2.94 ± 0.22
UUUCAGCAAUAUUACGUGGG | -2.4 ± 0.14 | -1.95 ± 0.12
UUUCAGCAAUAUUACGUUAG | -1.31 ± 0.11 | -0.474 ± 0.12
UUUGAGCAAUAUUACGAACU | -3.36 ± 0.28 | -2.77 ± 0.31
UUUGAGCAAUAUUACGACCG | – | -1.19 ± 0.4
UUUGAGCAAUAUUACGAUAA | -1.25 ± 0.087 | -0.386 ± 0.095
UUUGAGCAAUAUUACGAUUG | -3.75 ± 0.47 | -2.41 ± 0.31
UUUGAGCAAUAUUACGCAAC | – | -1.71 ± 0.26
UUUGAGCAAUAUUACGCGAU | – | -2.19 ± 0.4
UUUGAGCAAUAUUACGCGGU | -2.67 ± 0.28 | -2.37 ± 0.35
UUUGAGCAAUAUUACGCGUU | -2.4 ± 0.18 | -2.86 ± 0.42
UUUGAGCAAUAUUACGCUGG | -2.04 ± 0.11 | -2.01 ± 0.14
UUUGAGCAAUAUUACGCUUG | -3.52 ± 0.37 | -1.63 ± 0.4
UUUGAGCAAUAUUACGGCCG | -2.02 ± 0.35 | –
UUUGAGCAAUAUUACGGUAA | -2.38 ± 0.29 | -1.94 ± 0.25
UUUGAGCAAUAUUACGGUUG | -1.79 ± 0.2 | -0.702 ± 0.36
UUUGAGCAAUAUUACGUAAC | -2.01 ± 0.5 | –
UUUGAGCAAUAUUACGUGUC | -4.05 ± 0.42 | -2.79 ± 0.27
UUUGAGCAAUAUUACGUGUU | -2.61 ± 0.32 | -3.3 ± 0.33

Sequence | self-splicing fitness (ln) (30 °C) | self-splicing fitness (ln) (37 °C)
UUUGAGCAAUAUUACGUUUC | – | -2.62 ± 0.35
UUUUAGCAAUAUUACGAAGU | -3.02 ± 0.35 | -1.65 ± 0.46
UUUUAGCAAUAUUACGAGAA | -0.897 ± 0.48 | -0.946 ± 0.19
UUUUAGCAAUAUUACGAGCG | -1.02 ± 0.11 | -1.33 ± 0.1
UUUUAGCAAUAUUACGAUGC | – | -2.46 ± 0.38
UUUUAGCAAUAUUACGCAGA | -0.713 ± 0.21 | -0.506 ± 0.16
UUUUAGCAAUAUUACGCGAG | -1.15 ± 0.077 | -0.226 ± 0.097
UUUUAGCAAUAUUACGCGAU | -3.02 ± 0.34 | -1.97 ± 0.27
UUUUAGCAAUAUUACGGAGA | -1.93 ± 0.35 | -1.62 ± 0.27
UUUUAGCAAUAUUACGGAGC | -2.24 ± 0.38 | -2.37 ± 0.49
UUUUAGCAAUAUUACGGAGG | -2.86 ± 0.27 | -1.48 ± 0.22
UUUUAGCAAUAUUACGGAGU | -2.29 ± 0.33 | -1.95 ± 0.28
UUUUAGCAAUAUUACGGAUU | -1.8 ± 0.1 | -1.36 ± 0.15
UUUUAGCAAUAUUACGGCAA | 0.145 ± 0.12 | -0.398 ± 0.15
UUUUAGCAAUAUUACGGCCU | -1.53 ± 0.26 | -1.87 ± 0.33
UUUUAGCAAUAUUACGGCGU | -1.89 ± 0.21 | -0.915 ± 0.45
UUUUAGCAAUAUUACGGGUA | -1.75 ± 0.3 | -0.417 ± 0.28
UUUUAGCAAUAUUACGGGUC | -3.73 ± 0.4 | -2.96 ± 0.38
UUUUAGCAAUAUUACGGUCC | -2.8 ± 0.5 | -1.73 ± 0.43
UUUUAGCAAUAUUACGUAUC | – | -2.56 ± 0.33
UUUUAGCAAUAUUACGUCAU | -3 ± 0.28 | -1.47 ± 0.29
UUUUAGCAAUAUUACGUCUA | -0.819 ± 0.23 | -0.292 ± 0.2
